Results as given in the domain aggregation screens of Martell et al. (2025).

Experiment: soluble fraction after stress (log2 fold change); higher = more stays soluble; pooled small domains, quantitative proteomics
Settings: stress: pH 4
How it was run: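 Values are log2 fold changes, and higher ones mean more of the domain stayed soluble. Each fold change reflects the soluble amount of a domain after acid stress and is taken as a measure of aggregation propensity. The stress was pH 4, applied to pooled custom libraries of small protein domains analysed by high-throughput quantitative proteomics.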

In order of rising “soluble fraction (log2)” value:
1. HMDDGARQLVDQLNRLIANPAVSARIIHGYLILEGRVESEWEKTRTLLLAQVAGLPVIDLITVS  -2.12
2. HMDDENKIEVMINEEKVQLTGKDKYVFVDIFNYIDMDLTRIHGNLVLKLNGENASHNSLLKSGDKIEARWE  -1.92
3. HMDAKQLQSLKNNNEQLAGFIVRLTNFYEGLSPDIDAELSKLRSHLSGKVDYTLATVSINKINQLFMLEP  -1.75
4. HMAWIAVATKEDYSEYEWKELSPTTDWSTQTFDLGDLAGKTIYAVKMFFDHDTDVKDYKFNLGQLSITSN  -1.22
5. HMDAMLGEALRLIRVYHDLKQKQAAERLEVSTSYLSEIERGLKTPTLDIIQRYATVFDMPVSSIMFFSENL  -1.19
6. HMDAMLSEQLREKRGELLIEVDAIAGNALRWATLSAEQQDAWAVYRQALLDVPQQAGFPNDVVWPINPN  -0.982
7. HMDDKLKKLEEVFEMQEGTLTPDMRLDELEEWDSMTRLSLIVMMEDDYGKKVKRSEVMNYTTVQDIVDSME  -0.946
8. HMDAEEISILLEKAVLQLPEKQKMIFQLKYFEDLSYKDIQIITGGSIGGLKANYHHAVTKIEKLLS  -0.892
9. HMDDADPYEILGVERDAEDAEIKRAYHDLIRENHPDRLMAEGLPQEMIDVANEKVAFINDAYDRIEKLRGM  -0.89
10. HMDDGNHTEYIVLEKAKFYDEAGEYEEGRDLVLSFDKYQDNWKLVYTLGVFNKKLNNLEEARKYYKQALE  -0.846
11. HMDALIWYVSRGQQKFGPFNYFGVLKALQDKSVFEFDYVWKEGTENWVRLAEHELFSQEKVRELLA  -0.679
12. HMDDGLTRLTPRENEVLELMAQGRSNTAIAERLVLSYGAVEKNVSSIFTKLDLPLDAGDHRRVLAVLRRLN  -0.677
13. HMDAPLIIAETRVDVPDATVSDAVMMLDLRNTNALLFKNSGSGVLNMVYRRGDGTIGWGEPQ  -0.543
14. HMDAAEVEATARAMLRRSALNLLAQREQTAFELKQKLSRRFPEQAALLDEVIERLQEQGLQDDTR  -0.527
15. HMDAAANTLRILKALSESPMSADRLAELLMEEGSGRNPRTIRRYIRALREAGFGVEHREGRYVL  -0.483
16. HMDDERDRLVQQAMEGLSPALREILLLAYFQRMPYNQIAESLRIPLGTVKSRLHAAVAAFAKRWQELNRS  -0.475
17. HMDAPKPDIGMSTDQIRSSLGQPGSQTRLETGGGRIYELWIYLYPDGKELQIYFDNAKVVKMEALS  -0.419
18. HMDDFNLSPREKDVLGHLVKGNSYKMIADELQIGYDTVHSHIKKIYKKLHVNSMSEAVAKALKNKL  -0.26
19. HMDAEETLGARLRRLRQARGLSLAGLAQAAGLSKPSIWAWENGTTAPRRTSLLALARALDVPEQQLTGV  -0.173
20. HMDAIIVPSVLKMKPFEAEEKLSALGLRMKINDTVYIDNMKPGVIVEQSPTAEEDVKTDRVIYVIVNA  -0.139
21. HMDAEKHIVTPEAGLRLDRALTDALPNLSRSRVKQLINEGLVTTENKTITAPSYRVKYGDSFEISIPPPT  -0.134
22. HMDDHLRLSDNERISAMSALATHFTEGRLDTSEFDERTLAASQAKSRGDLRPLFDDLPGQLPAALSP  -0.125
23. HMDDPEISQEQRQQLFRTAKEHFGASGNDVLKEILADHGRDSTVKMPVSVFAEIMGDLLKRALD  -0.121
24. HMDDHKQHLIDFYHSRKRMPTYTEMMALFGYKSKNAVARLVEKMIDAGIVTKDKLGKLLPTTLFDSVPL  -0.0996
25. HMAYSEEDRRRVREELLTTALKLMSTQGIQHTTVEQVYRSVGISRSFFYAFFPTKEDLIVEAL  -0.0412
26. HMDAVSTMIENLRVKTGKSLADWVGLAKGSGADKHGAMVGWLKSEHGLTHGYANLIAHETFRSAA  0.0144
27. HMAYRLDVRNQTKGTYLVIQKKYWDKEKKQSRTKHHMSLGYVHDLQKLYSDPITHYKEVINQMNAEEKG  0.0253
28. HMDAVTPVLSRIRDARFKRMVLPGDEIEISVTLIDTIGKFFNLSGQIRNKDKISLTVNFALALV  0.0905
29. HMDASKVKIEDLGLSTRTENALVAASIRTAGGLARKSEMDLLSTDGLGEKGITEIKKALSDLGLELK  0.246
30. HMDDLSPEENKVIGAQVREELARRRLSRQHLADKAKISLSTLEKALTGTRPFTLASVVRIEEALQLQLRK  0.344
